Experimental data reported in patent US20240279678A1.

Experiments:
[1] = target: HIV envelope gp120 of HIV recombinant strain NL43 that expresses GFP (HIV-1); experiment: cell-based or functional assay
[2] = target: HIV envelope gp120 of HIV-1 strain HXB2 engineered to express Green Fluorescence Protein (HIV-1) (UniProt P04578); experiment: cell-based or functional assay

## VRC01 antibody (IL-2 secretory signal construct, expressed from AGT111)
[1]
  % GFP positive cells, CD4 T cells, AGT111 at 2 MOI, day 5 (no vector 0.71%): 0.38%
  % GFP positive cells, CD4 T cells, AGT111 at 2 MOI, day 7 (no vector 2.18%): 1.37%
  % GFP positive cells, CD4 T cells, AGT111 at 4 MOI, day 5 (no vector 0.71%): 0.32%
  % GFP positive cells, CD4 T cells, AGT111 at 4 MOI, day 7 (no vector 2.18%): 0.94%
  % GFP positive cells, CD4 T cells, AGT111 at 8 MOI, day 5 (no vector 0.71%): 0.25%
  % GFP positive cells, CD4 T cells, AGT111 at 8 MOI, day 7 (no vector 2.18%): 0.36%
  decrease in HIV infection, C8166 cells: 75.4%
  percent inhibition (cells protected), day 5, AGT111 MOI 8: 88%
  percent inhibition (cells protected), day 7, AGT111 MOI 8: 93%
  percent inhibition (cells protected), day 9, AGT111 MOI 2: 6%
  percent inhibition (cells protected), day 9, AGT111 MOI 4: 7%

## 3BNC117 antibody (IL-2 secretory signal construct, expressed from AGT112)
[1]
  % GFP positive (HIV-infected) cells, transduced PBMC, donor NY025 (control without vector 3.96%): 1.79%
  % GFP positive (HIV-infected) cells, transduced PBMC, donor NY026 (control without vector 0.57%): 0.3%

## VRC01 antibody (antibody secretory signal construct, expressed from AGT113)
[1]
  % HIV positive primary CD4 T cells, AGT113-transduced (un-transduced 1.28%): 0.36%
  decrease in HIV infection, C8166 cells: 96.7%

## sCD4(D1+D2) (from UniProt P01730 26-203) (receptor)
[1]
  % GFP positive cells, FIG. 8A, AGT116-transduced PBMC (control 0.46%): 0.3%
  % GFP positive cells, FIG. 8B, AGT116-transduced PBMC (control 7.75%): 3.67%
  % HIV positive primary CD4 T cells, AGT116-transduced (control 2.83%): 2.65%

## sCD4(D1+D2)-IgG1 Fc (Fc fusion)
[1]
  % GFP positive C8166 cells, NL4-GFP with version 1, average: 8.47%
  % GFP positive C8166 cells, NL4-GFP with version 1, replicate 2: 7.49%
  % GFP positive cells, FIG. 8A, AGT117-transduced PBMC, column NL43-sCD4-Ig (control 0.46%): 0.26%
  % GFP positive cells, FIG. 8B, AGT117-transduced PBMC, column NL43-sCD4-Ig (control 7.75%): 2.98%
  % HIV positive primary CD4 T cells, AGT117-transduced (control 2.83%): 0.65%
  decrease in HIV infection, primary CD4 T cells: 77%
  proportion of infected CD4 T cells, AGT117-transduced (no vector average of 2%): 0.024%
  virus inhibition, NL4-GFP challenge of C8166 cells: 53%
[2]
  % GFP positive C8166 cells, HXB2-GFP with version 1, replicate 2: 1.22%
  inhibition of virus infection, HXB2-GFP challenge of C8166 cells: 91%
